Biological target: the molecule itself
Assay: SAXS; free KorA at 2.5, 5 and 10 mg/ml in 20 mM Tris-HCl pH 7.0, 100 mM NaCl, 1 mM EDTA, 293K; confirmed by SEC-SAXS (Superdex 200 Increase, 4 mg/ml); mass from I0 against bovine serum albumin

B1: KorA repressor from the IncP1 plasmid RK2 (natural protein)
chain: MKKRLTESQFQEAIQGLEVGQQTIEIARGVLVDGKPQATFATSLGLTRGAVSQAVHRVWAAFEDKNLPEGYARVTAVLPEHQAYIVRKWEADAKKKQETKR
notes: KorA, global transcription repressor encoded by the IncP1 plasmid RK2; 13C/15N-labelled protein was used for NMR; also called free KorA; KorA dimer
For B1, the “stoichiometry N” value was 2.

Reference: paper PMC4889941, “Flexibility of KorA, a plasmid-encoded, global transcription regulator, in the presence and the absence of its operator” (Nucleic Acids Research, 2016)
